One experiment deals with Fc fragment alone. In words: ELISA binding to Fc fragment alone. Conditions: antibody at 10 μg/mL. As to the method: (§1) The A3 antibody directed against FLT3 was produced by a phage display strategy and the antibody selection was performed by using ECD of human or mouse recombinant FLT3 produced in NSO cell line. To identify antibodies cross-reacting with both human and mouse FLT3, phages were selected by three rounds of panning, according to methods well known in the art (Philibert, P. et al. A focused antibody library for selecting scFvs expressed at high levels in the cytoplasm. BMC Biotechnol. 7, 81; 2007), first against the ECD of human FLT3, then against the ECD of mouse FLT3 and then against the ECD of human FLT3. A batch of one selected antibody named A3 was tested for its ability to bind to the ECD of human or mouse recombinant FLT3 using an ELISA technique.

Another experiment concerns the target T1, FLT3 (Homo sapiens, UniProt P36888).
T1 construct: expressed in transfected cells; host or cells: RS4-11
T1 sequence (P36888 27-993): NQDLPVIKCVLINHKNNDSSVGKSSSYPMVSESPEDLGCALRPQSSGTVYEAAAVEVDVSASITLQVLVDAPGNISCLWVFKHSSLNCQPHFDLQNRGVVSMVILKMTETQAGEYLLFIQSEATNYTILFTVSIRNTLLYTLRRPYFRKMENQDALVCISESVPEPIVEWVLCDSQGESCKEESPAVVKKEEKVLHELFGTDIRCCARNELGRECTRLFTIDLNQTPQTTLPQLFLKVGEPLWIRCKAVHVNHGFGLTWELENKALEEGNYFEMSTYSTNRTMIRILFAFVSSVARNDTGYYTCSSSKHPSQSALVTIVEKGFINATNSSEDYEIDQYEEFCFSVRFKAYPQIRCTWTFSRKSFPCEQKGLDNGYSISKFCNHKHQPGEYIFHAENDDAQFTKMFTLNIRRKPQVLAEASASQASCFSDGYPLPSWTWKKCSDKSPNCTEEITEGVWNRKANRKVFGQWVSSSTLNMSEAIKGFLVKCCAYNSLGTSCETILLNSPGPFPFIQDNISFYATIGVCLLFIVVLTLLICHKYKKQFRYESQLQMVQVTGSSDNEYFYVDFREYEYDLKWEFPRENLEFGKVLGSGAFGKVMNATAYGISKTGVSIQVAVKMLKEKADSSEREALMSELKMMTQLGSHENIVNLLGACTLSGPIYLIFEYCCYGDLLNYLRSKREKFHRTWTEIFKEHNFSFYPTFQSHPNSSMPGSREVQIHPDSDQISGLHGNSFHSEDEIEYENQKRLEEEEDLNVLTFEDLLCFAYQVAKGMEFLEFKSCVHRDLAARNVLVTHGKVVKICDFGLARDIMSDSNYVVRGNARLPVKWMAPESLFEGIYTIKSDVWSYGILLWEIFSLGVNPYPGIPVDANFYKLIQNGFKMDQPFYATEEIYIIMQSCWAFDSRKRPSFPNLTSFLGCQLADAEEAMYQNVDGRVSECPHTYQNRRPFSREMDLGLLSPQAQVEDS
In words: FL-induced FLT3 auto-phosphorylation assay in RS4-11 cells. Format: cell-based. As to conditions: antibody at 10 and 100 μg/ml. As to the method: Cell. RS4-11 cells, used for auto-phosphorylation assays, were maintained in RPMI-1640 (Invitrogen) and 10% Fetal Calf Serum. They were transfected as in the case of HEK cells (see above)
Auto-Phosphorylation assays. A density of 50,000 cells per well was used to carry out this assay in suspension in 384-well small volume plates to determine the degree of phosphorylation of FLT3. In the aim to discover antagonist compounds and to develop this assay, we were determined the efficiency of FL on RS4-11 cells.
Cells were incubated with 1 nM of rh-FL in the presence of increasing concentrations of the antibody. In the plates containing RS4-11 cells (5 μL/well), 5 μL of compounds to be tested were added and incubated for 1 h at room temperature prior to the addition of 2 μof rh-FL at 0.1 μM. After incubation of 3 min at room temperature of rh-FL, 4 μl of lysis buffer were added and incubated for 2 h at room temperature. A mix of anti-FLT3 and an anti-TYR-969 FLT3 antibodies labeled with Lumi4-Tb and d2 respectively (4 μL) diluted in Tag-lites) labelling medium, were added on cell lysate. Plates were then incubated at room temperature for 2 h or overnight before signal detection (as above).

Experiment [1] concerns the target T2, ECD of human recombinant FLT3 (Fc-ECDhFLT3) (Homo sapiens, UniProt P36888).
T2 construct: ECD of human or mouse recombinant FLT3 produced in NSO cell line; host or cells: NSO cell line
T2 sequence (P36888 27-543 limits assumed): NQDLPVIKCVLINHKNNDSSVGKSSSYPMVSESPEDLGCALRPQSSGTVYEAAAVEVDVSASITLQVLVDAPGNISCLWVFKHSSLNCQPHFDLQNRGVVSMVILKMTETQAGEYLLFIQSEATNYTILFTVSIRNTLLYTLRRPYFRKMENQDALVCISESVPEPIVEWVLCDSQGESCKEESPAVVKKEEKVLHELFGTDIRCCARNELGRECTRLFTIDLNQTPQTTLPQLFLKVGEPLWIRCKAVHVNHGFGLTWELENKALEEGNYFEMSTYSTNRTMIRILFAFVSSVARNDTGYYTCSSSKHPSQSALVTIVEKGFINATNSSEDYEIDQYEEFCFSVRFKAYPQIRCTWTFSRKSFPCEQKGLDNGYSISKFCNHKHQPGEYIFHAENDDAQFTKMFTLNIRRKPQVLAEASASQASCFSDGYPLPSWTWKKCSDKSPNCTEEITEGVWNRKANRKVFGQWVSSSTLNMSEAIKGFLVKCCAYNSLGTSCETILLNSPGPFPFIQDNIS
In words: ELISA binding to ECD of human recombinant FLT3. Conditions: antibody at 10 μg/mL. As to the method:
as §1

Experiment [2] deals with T3, ECD of mouse recombinant FLT3 (Fc-ECDmFLT3) (Mus musculus, UniProt Q00342).
T3 construct: ECD of human or mouse recombinant FLT3 produced in NSO cell line; host or cells: NSO cell line
T3 sequence (Q00342 28-544 limits assumed): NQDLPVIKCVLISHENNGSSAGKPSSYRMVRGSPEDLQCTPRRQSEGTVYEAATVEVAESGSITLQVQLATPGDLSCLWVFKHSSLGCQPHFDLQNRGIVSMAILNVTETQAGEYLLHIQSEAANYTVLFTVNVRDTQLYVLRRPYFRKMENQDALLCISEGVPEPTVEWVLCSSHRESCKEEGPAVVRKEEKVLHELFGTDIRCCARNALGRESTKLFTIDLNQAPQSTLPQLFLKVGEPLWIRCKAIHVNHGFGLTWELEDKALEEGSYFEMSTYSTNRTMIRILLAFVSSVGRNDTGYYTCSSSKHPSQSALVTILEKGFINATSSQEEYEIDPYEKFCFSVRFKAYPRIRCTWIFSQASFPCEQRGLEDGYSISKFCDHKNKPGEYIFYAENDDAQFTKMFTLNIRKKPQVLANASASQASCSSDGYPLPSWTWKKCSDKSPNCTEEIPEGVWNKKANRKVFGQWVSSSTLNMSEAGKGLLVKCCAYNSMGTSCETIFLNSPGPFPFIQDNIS
The experiment is described as follows: ELISA binding to ECD of mouse recombinant FLT3. Conditions: antibody at 10 μg/mL. As for the experimental part: as §1
On the technique in general: An ELISA detects its analyte on a solid surface through an enzyme-linked reagent.

We go through one molecule from patent publication US10781452B2, “FLT3 receptor antagonists for the treatment or the prevention of pain disorders” (INSTITUT NATIONAL DE LA SANTE ET DE LA RECHERCHE MEDICALE …, priority 2010, dated 2020).

B1: A3 antibody: human monoclonal antibody against FLT3; VH SEQ ID NO:1, VL SEQ ID NO:2 (antibody, V domains shown)
VH: EVQLVESGGSLVKPGGSLRLSCAASGFTFSNSYMNWVRQAPGKGLEWISDISGSSRDIDYADFVKGRFTISRDNATNSLYLQMNSLRAEDTAVYYCVRSGNSGMDVWGRGTLVTVSS
VL: QSVLTQPASVSGSPGQSITISCAGTSSDVGGGYYVSWYQQHPGKAPKLMIYYDSYRPSGVSNRFSGSKSGNTASLTISGLQAEDEADYYCSSYTNNSTRVFGGGTKLEIK
modifications: Synthetic VH domain of A3; Synthetic VL region of A3
In the case of B1, the “ELISA immunoreactivity against Fc fragment alone” value in the experiment with Fc fragment alone is recorded as “not against the Fc fragment alone”. Further, in the experiment with FLT3, the “FL-induced FLT3 autophosphorylation” value was “inhibits FL-induced FLT3 autophosphorylation”. The “ELISA immunoreactivity against Fc-ECDhFLT3” value in experiment [1] is “generates immunoreactivity”. Also, the “ELISA immunoreactivity against Fc-ECDmFLT3” value in experiment [2] is “generates immunoreactivity”.
